Data published in patent publication US20250270315A1 (ELPISCIENCE SUZHOU BIOPHARMA, published 2025).

Legend:
[1] = molecular target: full length human SIRPα v1 with a small beta-gal fragment (ED) fused to its C-terminal, expressed in K562 … (human, UniProt P78324 31-504); test: cell-based or functional assay
[2] = molecular target: T1, human SIRPγ stably expressed on 293F cells (human, UniProt Q9P1W8 29-387); test: FACS, 293F-hSIRPγ cells
T1 construct: whole, on cells
Text: (§1) All the humanized antibodies as tested were confirmed to retain the similar activity as the parental antibody of 025c to bind to SIRP family members.

[3] = molecular target: T2, full length human SIRPα v1 stably expressed on CHOK1 or 293F cells (human, UniProt P78324 31-504); test: FACS, CHOK1-hSIRPα v1 cells
T2 construct: whole, on cells; also called CHOK1-human SIRPα v1; CHOK1-hSIRPα v1
T2 sequence (P78324 31-504): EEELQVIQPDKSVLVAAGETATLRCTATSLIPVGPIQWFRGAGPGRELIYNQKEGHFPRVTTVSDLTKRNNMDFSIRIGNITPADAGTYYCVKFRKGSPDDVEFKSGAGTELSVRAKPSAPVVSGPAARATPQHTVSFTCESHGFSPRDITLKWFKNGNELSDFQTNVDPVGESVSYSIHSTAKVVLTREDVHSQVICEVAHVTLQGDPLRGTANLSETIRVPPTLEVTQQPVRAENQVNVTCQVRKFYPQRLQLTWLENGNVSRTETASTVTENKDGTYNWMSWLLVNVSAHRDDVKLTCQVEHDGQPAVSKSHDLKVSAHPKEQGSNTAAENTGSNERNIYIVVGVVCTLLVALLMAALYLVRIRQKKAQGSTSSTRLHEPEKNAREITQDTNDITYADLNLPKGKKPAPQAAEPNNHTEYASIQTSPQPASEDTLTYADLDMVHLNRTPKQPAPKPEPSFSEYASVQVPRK
Text: as §1

[4] = molecular target: Human SIRPα v1 (antigen of the Octet and Biacore affinity measurements) (human, UniProt P78324 31-370, limits assumed); test: SPR (Biacore), 1:1 binding model
Chain of Human SIRPα v1 (antigen of the Octet and Biacore affinity measurements) (P78324 31-370 limits assumed): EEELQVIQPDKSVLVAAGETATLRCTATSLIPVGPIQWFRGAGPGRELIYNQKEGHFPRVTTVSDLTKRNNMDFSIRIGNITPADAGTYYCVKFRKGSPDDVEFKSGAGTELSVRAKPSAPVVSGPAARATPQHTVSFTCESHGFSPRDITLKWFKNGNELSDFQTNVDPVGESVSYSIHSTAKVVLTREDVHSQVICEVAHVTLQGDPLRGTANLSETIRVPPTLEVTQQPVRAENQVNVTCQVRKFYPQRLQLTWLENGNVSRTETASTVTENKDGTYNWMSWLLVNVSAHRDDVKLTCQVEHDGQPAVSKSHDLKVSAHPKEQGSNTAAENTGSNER
Protocol: The humanized antibodies were characterized for binding affinity against human SIRPα v1, human SIRPα v2 using Surface Plasmon Resonance technology (Biacore system). The association and dissociation curves were fit with 1:1 binding model, and the Ka/Kd/KD values for each antibody were calculated.

[5] = molecular target: T3, human SIRPα v1 ECD recombinant protein (tag not given) (human, UniProt P78324 31-373); test: competitive ELISA, mFc-CD47 ECD on coated SIRPα v1 ECD
T3 construct: extracellular domain; also called biotin labeled soluble human SIRPα v1 ECD recombinant protein; ELISA microplate coated human SIRPα v1 ECD
T3 sequence (P78324 31-373): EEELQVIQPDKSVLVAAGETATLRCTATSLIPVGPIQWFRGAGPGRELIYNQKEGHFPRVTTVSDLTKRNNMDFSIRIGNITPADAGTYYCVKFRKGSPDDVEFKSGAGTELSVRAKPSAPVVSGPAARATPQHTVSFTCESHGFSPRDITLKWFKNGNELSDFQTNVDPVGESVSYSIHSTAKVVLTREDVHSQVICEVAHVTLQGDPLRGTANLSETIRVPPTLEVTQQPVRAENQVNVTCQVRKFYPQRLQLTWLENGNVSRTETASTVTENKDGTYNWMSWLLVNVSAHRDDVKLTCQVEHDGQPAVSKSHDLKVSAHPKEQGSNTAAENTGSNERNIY
Protocol: (§2) Competitive ELISA assay was used to determine whether the purified chimeric antibodies can block CD47 and SIRPα interaction. Briefly, antibody and mFc tagged human CD47 ECD recombinant protein were co-incubated with ELISA microplate coated human SIRPα v1 ECD (FIGS. 6A and 6B) or human SIRPα v2 ECD (FIGS. 7A and 7B) recombinant protein. After washing, HRP labeled anti-mouse Fc 2nd antibody (Sigma) was added and incubated at 37° C. for 1 hour. Then, 100 μl/well of TMB solution (Biotechnology) was added. After incubation for 15 minutes at room temperature, the reaction was stopped by the addition of 50 μl of 1N HCl. OD 450 nm was read. Blocking ratio was determined by blockade of human CD47 ECD recombinant protein binding to ELISA microplate coated human SIRPα ECD recombinant protein. Other than 005, all antibodies as tested can block interaction between human CD47 and different human SIRPα variants.
(§3) The humanized antibodies were tested for the ability to block CD47 and SIRPα interaction with competitive ELISA assay (refer to methods described in Example 4.2.3.).

[6] = molecular target: T4, human SIRPα v2 ECD recombinant protein (tag not given) (human); test: competitive ELISA, mFc-CD47 ECD on coated SIRPα v2 ECD
T4 construct: extracellular domain; also called ELISA microplate coated human SIRPα v2 ECD
Protocol: as §2, §3

[7] = molecular target: T5, human SIRPβ stably expressed on CHOK1 cells (human, UniProt O00241 30-398); test: FACS, CHOK1 cells stably expressing human SIRPβ
T5 construct: whole, on cells; also called CHOK1-human SIRPB; CHOK1-hSIRPβ
T5 sequence (O00241 30-398): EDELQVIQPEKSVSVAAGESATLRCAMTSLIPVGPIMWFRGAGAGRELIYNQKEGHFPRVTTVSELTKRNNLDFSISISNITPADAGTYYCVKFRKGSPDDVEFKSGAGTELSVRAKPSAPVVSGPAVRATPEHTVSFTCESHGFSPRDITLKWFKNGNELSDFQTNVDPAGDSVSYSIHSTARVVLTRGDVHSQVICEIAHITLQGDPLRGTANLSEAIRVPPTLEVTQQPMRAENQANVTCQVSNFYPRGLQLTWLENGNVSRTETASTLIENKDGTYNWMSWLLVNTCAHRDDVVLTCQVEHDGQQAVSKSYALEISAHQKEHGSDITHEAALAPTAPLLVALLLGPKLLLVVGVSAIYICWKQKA
Text: as §1

[8] = molecular target: T5, human SIRPβ stably expressed on CHOK1 …; test: FACS, CHOK1-hSIRPβ cells (columns c6 and c7 read as swapped)
Text: as §1

[9] = molecular target: T2, full length human SIRPα v1 stably …; test: competitive FACS, mFc-CD47 ECD on CHOK1-human SIRPα v1 cells
Protocol: Competitive FACS assay was also set up to further compare the blocking activity of the humanized antibodies and reference antibodies. Briefly antibody and mFc tagged human CD47 ECD recombinant protein were co-incubated with CHOK1 cells stably expressing human SIRPα v1 (FIG. 16A) or human SIRPα v2 (FIG. 16B). After washing, dye labeled anti-mouse Fc 2nd antibody (Sigma) was added and incubated at 37° C. for 1 hour. Fluorescence intensity was detected. Blocking ratio was determined by blockade of human CD47 ECD recombinant protein binding to SIRPα expressed CHOK1 cells. […] In particular, HEFLB doesn't work at all for human SIRPα v2.

T1 sequence (Q9P1W8 29-387): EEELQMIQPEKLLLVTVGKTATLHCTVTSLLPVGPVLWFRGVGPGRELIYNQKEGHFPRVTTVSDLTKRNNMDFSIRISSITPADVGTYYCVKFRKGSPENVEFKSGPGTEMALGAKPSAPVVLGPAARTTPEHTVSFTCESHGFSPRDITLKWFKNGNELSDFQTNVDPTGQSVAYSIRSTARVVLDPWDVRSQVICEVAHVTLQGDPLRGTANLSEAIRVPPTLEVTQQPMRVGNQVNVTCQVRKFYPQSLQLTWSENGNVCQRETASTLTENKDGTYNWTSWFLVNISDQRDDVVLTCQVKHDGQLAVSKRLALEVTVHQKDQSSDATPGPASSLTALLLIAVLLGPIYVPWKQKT
Chain of full length human SIRPα v1 with a small beta-gal fragment (ED) fused to its C-terminal, expressed in K562 … (P78324 31-504): as the sequence (P78324 31-504) above

B1: hu025.021 (antibody, V domains shown)
VH: EVQLVQSGAEVKKPGATVKISCKVSGFNIKDYYMHWVQQAPGKGLEWIGRIDPEDAETKYAPKFQGRVTITADTSTNTAYMELSSLRSEDTAVYYCDRGLAYWGQGTLVTVSS
VL: EIVLTQSPATLSLSPGERATLSCSASSSVSSSYLYWYQQKPGQAPKLWIYSTSNLASGIPARFSGSGSGTDYTLTISSLEPEDFAVYYCHQWSSYPYTFGQGTKLEIK
notes: Humanized 025; also called hu025.21
B1 was tested, and the “SHP-1 recruitment blocking, IC50” value [1] was 0.1 nM, the “SHP-1 recruitment blocking, TOP blocking (%)” value [1] was 86.3% and the EC50 [2] was 0.21 nM. The “TOP MFI” value [2] was 22100 MFI, the EC50 [3] was 1.08 nM and the “TOP MFI” value [3] was 56400 MFI. For the same binder, the Kd [4] was 3.05 nM, the koff [4] was 0.00183 s⁻¹ and the kon [4] was 599000 M⁻¹ s⁻¹. For the same binder, the IC50 [5] was 2.07 nM, the “TOP blocking (%)” value [5] was 97.7% and the IC50 [6] was 1.96 nM. For the same binder, the “TOP blocking (%)” value [6] was 98.3%, the “EC50 (read off the curve)” value [7] was ~0.7 nM and the EC50 [8] was 0.68 nM. For the same binder, the “TOP MFI” value [8] was 72000 MFI.

B2: hu025.059 (antibody, V domains shown)
VH: EVQLVQSGAEVKKPGATVKISCKASGFNIKDYYMHWVQQAPGKGLEWIGRIDPEDAETKYAPKFQGRVTITADTSTNTAYMELSSLRSEDTAVYYCDRGLAYWGQGTLVTVSS
VL: EIVLTQSPATLSLSPGERATLSCSASSSVSSSYLYWYQQKPGQAPKLWIYSTSNLASGIPARFSGSGSGTDYTLTISSLEPEDFAVYYCHQWSSYPYTFGQGTKLEIK
notes: Humanized 025; also called hu025.59
For B2, the “SHP-1 recruitment blocking, IC50” value [1] was 0.1 nM, the “SHP-1 recruitment blocking, TOP blocking (%)” value [1] was 78.8% and the EC50 [2] was 0.2 nM. For the same binder, the “TOP MFI” value [2] was 22700 MFI, the EC50 [3] was 1.05 nM and the “TOP MFI” value [3] was 59400 MFI. For the same binder, the Kd [4] was 2.29 nM, the koff [4] was 0.00123 s⁻¹ and the kon [4] was 536000 M⁻¹ s⁻¹. For the same binder, the IC50 [5] was 2.48 nM, the “TOP blocking (%)” value [5] was 97.1% and the IC50 [6] was 2.03 nM. For the same binder, the “TOP blocking (%)” value [6] was 98.3%, the “EC50 (read off the curve)” value [7] was ~0.7 nM and the EC50 [8] was 0.67 nM. The “TOP MFI” value [8] was 73100 MFI.

B3: hu025.023 (antibody, V domains shown)
VH: EVQLVQSGAEVKKPGATVKISCKVSGFNIKDYYMHWVQQAPGKGLEWIGRIDPEDAETKYAPKFQGRVTITADTSTNTAYMELSSLRSEDTAVYYCDRGLAYWGQGTLVTVSS
VL: EIVLTQSPATLSLSPGERATLSCSASSSVSSSYLYWYQQKPGQAPKLWIYSTSNLASGIPARFSGSGSGTDFTLTISSLEPEDFAVYYCHQWSSYPYTFGQGTKLEIK
notes: Humanized 025; also called hu025.23
B3 was tested, and the “SHP-1 recruitment blocking, IC50” value [1] was 0.1 nM, the “SHP-1 recruitment blocking, TOP blocking (%)” value [1] was 85.5% and the EC50 [2] was 0.2 nM. The “TOP MFI” value [2] was 22400 MFI, the EC50 [3] was 1.13 nM and the “TOP MFI” value [3] was 57800 MFI. The Kd [4] was 2.67 nM, the koff [4] was 0.00172 s⁻¹ and the kon [4] was 643000 M⁻¹ s⁻¹. For the same binder, the IC50 [5] was 2.6 nM, the “TOP blocking (%)” value [5] was 97.2% and the IC50 [6] was 2.07 nM. For the same binder, the “TOP blocking (%)” value [6] was 98%, the “EC50 (read off the curve)” value [7] was ~0.7 nM and the EC50 [8] was 0.66 nM. The “TOP MFI” value [8] was 72800 MFI, the IC50 [9] was 0.57 nM and the “TOP blocking (%)” value [9] was 97.7%.

B4: hu025.033 (antibody, V domains shown)
VH: EVQLVQSGAEVKKPGATVKISCKVSGFNIKDYYMHWVQQAPGKGLEWIGRIDPEDAETKYAPKFQGRVTITADTSTDTAYMELSSLRSEDTAVYYCDRGLAYWGQGTLVTVSS
VL: EIVLTQSPATLSLSPGERATLSCSASSSVSSSYLYWYQQKPGQAPKLWIYSTSNLASGIPARFSGSGSGTDYTLTISSLEPEDFAVYYCHQWSSYPYTFGQGTKLEIK
notes: Humanized 025
B4 was tested, and the “SHP-1 recruitment blocking, IC50” value [1] was 0.19 nM, the “SHP-1 recruitment blocking, TOP blocking (%)” value [1] was 84.5% and the EC50 [2] was 0.21 nM. For the same binder, the “TOP MFI” value [2] was 20900 MFI, the EC50 [3] was 0.99 nM and the “TOP MFI” value [3] was 53800 MFI. The IC50 [5] was 2.22 nM, the “TOP blocking (%)” value [5] was 97.2% and the IC50 [6] was 1.88 nM. The “TOP blocking (%)” value [6] was 98.3%, the “EC50 (read off the curve)” value [7] was ~0.7 nM and the EC50 [8] was 0.8 nM. The “TOP MFI” value [8] was 69700 MFI.

B5: hu025.060 (antibody, V domains shown)
VH: EVQLVQSGAEVKKPGATVKISCKASGFNIKDYYMHWVQQAPGKGLEWIGRIDPEDAETKYAPKFQGRVTITADTSTNTAYMELSSLRSEDTAVYYCDRGLAYWGQGTLVTVSS
VL: EIVLTQSPATLSLSPGERATLSCSASSSVSSSYLYWYQQKPGQAPKLWIYSTSNLASGIPARFSGSGSGTDFTLTISSLEPEDFAVYYCHQWSSYPYTFGQGTKLEIK
notes: Humanized 025; also called hu025.60
With B5 the “SHP-1 recruitment blocking, IC50” value [1] was 0.09 nM, the “SHP-1 recruitment blocking, TOP blocking (%)” value [1] was 87.5% and the EC50 [2] was 0.22 nM. The “TOP MFI” value [2] was 22200 MFI, the EC50 [3] was 0.84 nM and the “TOP MFI” value [3] was 61500 MFI. The Kd [4] was 1.99 nM, the koff [4] was 0.00111 s⁻¹ and the kon [4] was 560000 M⁻¹ s⁻¹. For the same binder, the IC50 [5] was 2.15 nM, the “TOP blocking (%)” value [5] was 95.2% and the IC50 [6] was 1.88 nM. For the same binder, the “TOP blocking (%)” value [6] was 97%, the “EC50 (read off the curve)” value [7] was ~0.7 nM and the EC50 [8] was 0.75 nM. For the same binder, the “TOP MFI” value [8] was 71200 MFI, the IC50 [9] was 0.53 nM and the “TOP blocking (%)” value [9] was 98.7%.
